Laboratory results as given in patent US20220339194A1 (A2 BIOTHERAPEUTICS, published 2022).

Target: erb-b2 receptor tyrosine kinase 2 (HER2) on target cells (Homo sapiens (Human), UniProt P04626 23-1255)
Experiment: cell-based or functional assay

B1: HER2 CAR CT1094 (receptor)
chain: QVQLQQSGPELKKPGETVKISCKASGYPFTNYGMNWVKQAPGQGLKWMGWINTSTGESTFADDFKGRFDFSLETSANTAYLQINNLKSEDSATYFCARWEVYHGYVPYWGQGTTVTVSSGGGGSGGGGSGGGGSDIQLTQSHKFLSTSVGDRVSITCKASQDVYNAVAWYQQKPGQSPKLLIYSASSRYTGVPSRFTGSGSGPDFTFTISSVQAEDLAVYFCQQHFRTPFTFGSGTKLEIKAEPKSPDKTHTCPPCPKDPKFWVLVVVGGVLACYSLLVTVAFIIFWVRSKRSRLLHSDYMNMTPRRPGPTRKHYQPYAPPRDFAAYRSRVKFSRSADAPAYKQGQNQLYNELNLGRREEYDVLDKRRGRDPEMGGKPRRKNPQEGLYNELQKDKMAEAYSEIGMKGERRRGKGHDGLYQGLSTATKDTYDALHMQALPPR
EC50 (molecules/cell), Jurkat NFAT luciferase activation, mRNA titration in HeLa; construct CT1094 (CAR only): 6500 molecules/cell | EC50 (molecules/cell), Jurkat NFAT luciferase activation, mRNA titration in HeLa; construct CT1113 (CT1094 + Murine blocker): 4900 molecules/cell | EC50 (molecules/cell), Jurkat NFAT luciferase activation, mRNA titration in HeLa; construct CT1121 (CT1094 + Human-1 blocker): 4600 molecules/cell | EC50 (molecules/cell), Jurkat NFAT luciferase activation, mRNA titration in HeLa; construct CT1187 (CT1094 + Human-2 blocker): 4500 molecules/cell
